Measured values taken from publication PMC6345366 (Chemical communications (Cambridge, England), 2017).
Square brackets hold non-standard residues; d marks the D form. Ends that are not written are not given here.

Experiments:
Test in all cases: ITC
[1] = biological target: T1, KDM5A PHD3 (third PHD zinc finger of KDM5A) (UniProt P29375 1609-1659)
T1 sequence: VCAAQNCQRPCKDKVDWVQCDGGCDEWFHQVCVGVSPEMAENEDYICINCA

[2] = biological target: T2, KDM4A tandem tudor domain (human)
T2 sequence (O75164 whole entry, looked up): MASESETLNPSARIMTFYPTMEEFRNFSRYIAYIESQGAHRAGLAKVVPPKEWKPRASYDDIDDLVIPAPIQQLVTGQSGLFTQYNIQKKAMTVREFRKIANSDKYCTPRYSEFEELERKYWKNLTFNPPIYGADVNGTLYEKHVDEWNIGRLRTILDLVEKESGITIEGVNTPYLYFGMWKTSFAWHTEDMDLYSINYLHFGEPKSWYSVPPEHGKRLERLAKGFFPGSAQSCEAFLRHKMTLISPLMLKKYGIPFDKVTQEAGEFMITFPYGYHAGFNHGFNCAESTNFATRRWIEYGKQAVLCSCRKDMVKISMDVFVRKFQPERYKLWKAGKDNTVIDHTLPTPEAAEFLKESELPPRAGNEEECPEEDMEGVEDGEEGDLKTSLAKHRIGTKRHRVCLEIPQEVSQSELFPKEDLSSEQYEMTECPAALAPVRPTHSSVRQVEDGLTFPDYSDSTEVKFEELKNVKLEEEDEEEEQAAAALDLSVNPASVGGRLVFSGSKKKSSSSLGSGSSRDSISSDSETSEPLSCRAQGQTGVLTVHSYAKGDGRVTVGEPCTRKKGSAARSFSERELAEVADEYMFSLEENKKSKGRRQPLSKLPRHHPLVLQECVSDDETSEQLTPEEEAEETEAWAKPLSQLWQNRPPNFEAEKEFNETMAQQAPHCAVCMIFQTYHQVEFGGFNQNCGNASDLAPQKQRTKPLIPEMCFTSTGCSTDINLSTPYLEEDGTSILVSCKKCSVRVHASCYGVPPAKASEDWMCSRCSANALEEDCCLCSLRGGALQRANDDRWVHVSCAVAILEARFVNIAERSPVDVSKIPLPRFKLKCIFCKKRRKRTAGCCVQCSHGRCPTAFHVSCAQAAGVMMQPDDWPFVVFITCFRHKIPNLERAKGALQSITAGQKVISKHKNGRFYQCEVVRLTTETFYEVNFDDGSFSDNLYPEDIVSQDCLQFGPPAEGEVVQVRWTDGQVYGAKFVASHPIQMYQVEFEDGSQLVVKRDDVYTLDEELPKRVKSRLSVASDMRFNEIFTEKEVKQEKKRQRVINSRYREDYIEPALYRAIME

[3] = biological target: SGF29 tandem tudor domain
TAF3 PHD zinc finger = biological target: T3, TAF3 PHD zinc finger
T3 sequence (Q5VWG9 whole entry, species assumed, looked up): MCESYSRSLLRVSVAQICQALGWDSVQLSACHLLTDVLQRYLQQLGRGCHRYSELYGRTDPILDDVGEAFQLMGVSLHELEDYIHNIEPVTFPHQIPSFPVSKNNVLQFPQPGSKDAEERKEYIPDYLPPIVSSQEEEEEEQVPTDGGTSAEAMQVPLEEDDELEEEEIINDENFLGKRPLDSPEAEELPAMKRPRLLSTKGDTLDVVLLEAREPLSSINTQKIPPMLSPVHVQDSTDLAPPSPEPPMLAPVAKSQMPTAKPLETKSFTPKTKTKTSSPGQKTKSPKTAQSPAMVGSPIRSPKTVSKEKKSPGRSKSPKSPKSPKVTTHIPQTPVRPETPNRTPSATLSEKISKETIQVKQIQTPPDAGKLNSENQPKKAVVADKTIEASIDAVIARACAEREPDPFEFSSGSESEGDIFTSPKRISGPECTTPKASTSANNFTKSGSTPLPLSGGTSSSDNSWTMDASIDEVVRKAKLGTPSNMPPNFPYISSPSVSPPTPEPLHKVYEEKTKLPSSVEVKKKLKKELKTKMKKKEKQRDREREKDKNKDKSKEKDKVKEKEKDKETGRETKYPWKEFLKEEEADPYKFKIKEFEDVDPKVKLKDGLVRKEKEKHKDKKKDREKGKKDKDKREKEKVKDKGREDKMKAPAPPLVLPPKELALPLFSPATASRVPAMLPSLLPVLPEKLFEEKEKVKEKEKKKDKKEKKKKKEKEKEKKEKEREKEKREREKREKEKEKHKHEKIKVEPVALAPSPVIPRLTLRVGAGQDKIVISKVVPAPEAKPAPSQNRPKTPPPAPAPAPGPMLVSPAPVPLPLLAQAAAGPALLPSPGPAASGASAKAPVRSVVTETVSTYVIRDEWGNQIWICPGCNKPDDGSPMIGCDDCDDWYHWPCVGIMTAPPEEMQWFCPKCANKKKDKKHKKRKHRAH

Chain of SGF29 tandem tudor domain (Q96ES7 whole entry, the tested form may be a part): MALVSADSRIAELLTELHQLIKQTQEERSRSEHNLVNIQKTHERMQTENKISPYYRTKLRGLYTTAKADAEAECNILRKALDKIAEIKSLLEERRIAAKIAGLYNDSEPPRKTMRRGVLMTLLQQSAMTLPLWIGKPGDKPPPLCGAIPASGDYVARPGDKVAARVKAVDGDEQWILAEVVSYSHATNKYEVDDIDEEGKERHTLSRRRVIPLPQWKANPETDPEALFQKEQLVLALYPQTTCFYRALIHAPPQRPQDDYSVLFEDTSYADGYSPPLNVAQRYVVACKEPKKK

Binder	Kd [1]	dH [1]	dH [2]	dH [3]	dH (TAF3 PHD zinc finger)
ART[dK](Me3)QTARKS [10-mer histone peptide D-H3K4me3]	1200 nM	-7.8 kcal/mol	–	–	–
ARTK(Me3)QTARKS [10-mer histone peptide L-H3K4me3]	110 nM	-11.1 kcal/mol	-13.1 kcal/mol	-7.7 kcal/mol	-10.1 kcal/mol
